Test results published in article PMC5906670, “Structural basis of epilepsy-related ligand–receptor complex LGI1–ADAM22” (Nature Communications, 2018).

Tests used:
[1] = target: the molecule itself; assay: SEC-MALS; co-purified complexes, 1 g L^−1, ENrich SEC 650 column, 20 mM Tris-HCl (pH 7.5), 150 mM NaCl (standard condition)
[2] = target: T1, ADAM22 ECD (non-tagged) (human, UniProt Q9P0K1-1 26-729, p.Pro81Arg); assay: SEC-MALS; co-purified complexes, 1 g L^−1, ENrich SEC 650 column, 20 mM Tris-HCl (pH 7.5), 500 mM NaCl; conditions: both partners purified
T1 construct: signal peptide in the construct; ADAM22, human, cDNA as NM_021723 except the p.Pro81Arg polymorphism in the Pro domain; source: Expi293F, transient, co-expressed with His6-tagged LGI1; purified as the complex (Ni-NTA, SEC)
T1 sequence (looked up): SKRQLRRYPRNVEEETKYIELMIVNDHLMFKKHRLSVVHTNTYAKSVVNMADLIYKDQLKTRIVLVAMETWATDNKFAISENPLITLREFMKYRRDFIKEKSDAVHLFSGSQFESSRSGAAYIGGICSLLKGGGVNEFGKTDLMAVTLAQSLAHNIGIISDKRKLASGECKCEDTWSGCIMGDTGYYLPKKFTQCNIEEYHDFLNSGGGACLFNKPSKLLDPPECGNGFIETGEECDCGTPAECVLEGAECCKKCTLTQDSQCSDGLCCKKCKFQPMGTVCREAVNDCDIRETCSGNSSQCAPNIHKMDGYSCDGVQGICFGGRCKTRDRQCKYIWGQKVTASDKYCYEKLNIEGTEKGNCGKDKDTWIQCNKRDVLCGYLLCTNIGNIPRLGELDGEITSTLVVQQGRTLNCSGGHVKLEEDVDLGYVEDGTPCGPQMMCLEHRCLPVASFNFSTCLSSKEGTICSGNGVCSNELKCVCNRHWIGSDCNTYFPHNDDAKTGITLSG

[3] = target: the molecule itself; assay: as above
[4] = target: the molecule itself; assay: crystal structure; LGI1^R470A–ADAM22 ECD complex, co-expressed and co-purified; sitting drop, 20 °C, 10% PEG8000, 0.1 M zinc acetate, 0.1 M MES-NaOH (pH 6.0); 7.13 Å
[5] = target: the molecule itself; assay: SEC-SAXS; LGI1–ADAM22 complex (LGI1^R470A) at 5.7 or 8.2 g L^−1, ENrich SEC 650, 20 mM Tris-HCl (pH 7.5), 150 or 500 mM NaCl, 293 K; scattering curve compared with curves of the 2:2 crystal structure and a 3:3 model
[6] = target: T1, ADAM22 ECD (non-tagged); assay: SEC-MALS; co-purified complexes, 1 g L^−1, ENrich SEC 650 column, 20 mM Tris-HCl (pH 7.5), 150 mM NaCl (standard condition); conditions: both partners purified
[7] = target: T2, ADAM22 ECD (C-terminal His6 tag) (human, UniProt Q9P0K1-1 26-729, p.Pro81Arg); assay: as above; conditions: both partners purified
T2 construct: signal peptide in the construct; ADAM22, human, cDNA as NM_021723 except the p.Pro81Arg polymorphism in the Pro domain; also called ADAM22 ectodomain; source: Expi293F, transient, co-expressed with LGI1 EPTP-His6; purified from culture medium (Ni-NTA, SEC)
T2 sequence (looked up): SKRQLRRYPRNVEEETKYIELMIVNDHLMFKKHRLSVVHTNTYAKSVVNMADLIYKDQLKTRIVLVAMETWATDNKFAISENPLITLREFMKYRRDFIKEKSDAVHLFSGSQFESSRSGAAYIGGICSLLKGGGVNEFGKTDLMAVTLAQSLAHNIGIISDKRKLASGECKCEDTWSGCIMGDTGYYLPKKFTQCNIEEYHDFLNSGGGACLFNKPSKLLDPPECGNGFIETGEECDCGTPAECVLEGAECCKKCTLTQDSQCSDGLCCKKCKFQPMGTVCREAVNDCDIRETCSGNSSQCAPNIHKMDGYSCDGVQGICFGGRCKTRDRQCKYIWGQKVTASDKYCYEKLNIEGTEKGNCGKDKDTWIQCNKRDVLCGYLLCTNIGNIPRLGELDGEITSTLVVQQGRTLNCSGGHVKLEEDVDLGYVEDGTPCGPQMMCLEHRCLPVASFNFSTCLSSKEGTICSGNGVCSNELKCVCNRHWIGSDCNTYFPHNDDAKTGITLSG

B1: full-length LGI1 (residues 37–557), C-terminal His6 (ligand, human, UniProt O95970-1 37-557, looked up)
chain: PAKPKCPAVCTCTKDNALCENARSIPRTVPPDVISLSFVRSGFTEISEGSFLFTPSLQLLLFTSNSFDVISDDAFIGLPHLEYLFIENNNIKSISRHTFRGLKSLIHLSLANNNLQTLPKDIFKGLDSLTNVDLRGNSFNCDCKLKWLVEWLGHTNATVEDIYCEGPPEYKKRKINSLSSKDFDCIITEFAKSQDLPYQSLSIDTFSYLNDEYVVIAQPFTGKCIFLEWDHVEKTFRNYDNITGTSTVVCKPIVIETQLYVIVAQLFGGSHIYKRDSFANKFIKIQDIEILKIRKPNDIETFKIENNWYFVVADSSKAGFTTIYKWNGNGFYSHQSLHAWYRDTDVEYLEIVRTPQTLRTPHLILSSSSQRPVIYQWNKATQLFTNQTDIPNMEDVYAVKHFSVKGDVYICLTRFIGDSKVMKWGGSSFQDIQRMPSRGSMVFQPLQINNYQYAILGSDYSFTQVYNWDAEKAKFVKFQELNVQAPRSFTHVSINKRNFLFASSFKGNTQIYKHVIVDLSA
notes: LGI1, human, cDNA NM_005097; 'full length, residues 37–557' (without the signal peptide); PDB 5Y31 holds the R470A mutant of the same limits; also called LGI1^WT; source: Expi293F, transient, co-expressed with non-tagged ADAM22 ECD; purified from culture medium (Ni-NTA, SEC)
- stoichiometry N [1]: 3 LGI1 chains in the assembly
- stoichiometry N [2]: 1 LGI1 per ADAM22 ECD (2:2)
- stoichiometry N [3]: 2 LGI1 chains in the assembly

B2: LGI1^R470A (residues 37–557), C-terminal His6 (ligand, human, UniProt O95970-1 37-557, looked up)
chain: PAKPKCPAVCTCTKDNALCENARSIPRTVPPDVISLSFVRSGFTEISEGSFLFTPSLQLLLFTSNSFDVISDDAFIGLPHLEYLFIENNNIKSISRHTFRGLKSLIHLSLANNNLQTLPKDIFKGLDSLTNVDLRGNSFNCDCKLKWLVEWLGHTNATVEDIYCEGPPEYKKRKINSLSSKDFDCIITEFAKSQDLPYQSLSIDTFSYLNDEYVVIAQPFTGKCIFLEWDHVEKTFRNYDNITGTSTVVCKPIVIETQLYVIVAQLFGGSHIYKRDSFANKFIKIQDIEILKIRKPNDIETFKIENNWYFVVADSSKAGFTTIYKWNGNGFYSHQSLHAWYRDTDVEYLEIVRTPQTLRTPHLILSSSSQRPVIYQWNKATQLFTNQTDIPNMEDVYAVKHFSVKGDVYICLTRFIGDSKVMKWGGSSFQDIQAMPSRGSMVFQPLQINNYQYAILGSDYSFTQVYNWDAEKAKFVKFQELNVQAPRSFTHVSINKRNFLFASSFKGNTQIYKHVIVDLSA
notes: LGI1, human, cDNA NM_005097, residues 37-557; also called LGI1 (in the 'LGI1–ADAM22 complex'); source: Expi293F, transient, co-expressed with non-tagged ADAM22 ECD; purified as the complex (Ni-NTA, SEC)
- stoichiometry N [4]: 2 LGI1 chains in the assembly
- stoichiometry N [5]: 3 LGI1 chains in the assembly

B3: LGI1^R474Q (residues 37–557), C-terminal His6 (ligand, human, UniProt O95970-1 37-557, looked up)
chain: PAKPKCPAVCTCTKDNALCENARSIPRTVPPDVISLSFVRSGFTEISEGSFLFTPSLQLLLFTSNSFDVISDDAFIGLPHLEYLFIENNNIKSISRHTFRGLKSLIHLSLANNNLQTLPKDIFKGLDSLTNVDLRGNSFNCDCKLKWLVEWLGHTNATVEDIYCEGPPEYKKRKINSLSSKDFDCIITEFAKSQDLPYQSLSIDTFSYLNDEYVVIAQPFTGKCIFLEWDHVEKTFRNYDNITGTSTVVCKPIVIETQLYVIVAQLFGGSHIYKRDSFANKFIKIQDIEILKIRKPNDIETFKIENNWYFVVADSSKAGFTTIYKWNGNGFYSHQSLHAWYRDTDVEYLEIVRTPQTLRTPHLILSSSSQRPVIYQWNKATQLFTNQTDIPNMEDVYAVKHFSVKGDVYICLTRFIGDSKVMKWGGSSFQDIQRMPSQGSMVFQPLQINNYQYAILGSDYSFTQVYNWDAEKAKFVKFQELNVQAPRSFTHVSINKRNFLFASSFKGNTQIYKHVIVDLSA
notes: LGI1, human, cDNA NM_005097, residues 37-557; R474Q is a human ADLTE mutation; source: Expi293F, transient, co-expressed with ADAM22 ECD; purified as the complex (Ni-NTA, SEC)
- stoichiometry N [6]: 1 LGI1 per ADAM22 ECD

B4: LGI1 EPTP (domain or fragment, human, UniProt O95970-1 224-557, looked up)
chain: TEFAKSQDLPYQSLSIDTFSYLNDEYVVIAQPFTGKCIFLEWDHVEKTFRNYDNITGTSTVVCKPIVIETQLYVIVAQLFGGSHIYKRDSFANKFIKIQDIEILKIRKPNDIETFKIENNWYFVVADSSKAGFTTIYKWNGNGFYSHQSLHAWYRDTDVEYLEIVRTPQTLRTPHLILSSSSQRPVIYQWNKATQLFTNQTDIPNMEDVYAVKHFSVKGDVYICLTRFIGDSKVMKWGGSSFQDIQRMPSRGSMVFQPLQINNYQYAILGSDYSFTQVYNWDAEKAKFVKFQELNVQAPRSFTHVSINKRNFLFASSFKGNTQIYKHVIVDLSA
notes: LGI1, human, cDNA NM_005097; EPTP domain, residues 224-557; also called C-terminal epitempin-repeat (EPTP) domain of LGI1; EAR domain; source: Expi293F, transient, co-expressed with His6-tagged ADAM22 ECD; purified from culture medium (Ni-NTA, SEC)
- stoichiometry N [7]: 1 LGI1 EPTP per ADAM22 ECD
